# Assay results published in patent US20170119790A1, “Agents, Uses and Methods” (CYTOGUIDE A/S, priority 2009, published 2017).
# T1: mouse CD163 1-5 LKIHDK-->VKVQEE, Y60R mutant (Mus musculus, UniProt Q2VLH6, D69E/H68Q/I67V/K70E/L65V/Y111R)
# T1 construct: A mutant (LKIHDK-->VKVQEE, Y60R) in domain 1 of mouse CD163 1-5; host or cells: Lenti-X 293T, transient; captured from supernatant on Ni-NTA
# T1 sequence (Q2VLH6 39-577 L65V/I67V/H68Q/D69E/K70E/Y111R): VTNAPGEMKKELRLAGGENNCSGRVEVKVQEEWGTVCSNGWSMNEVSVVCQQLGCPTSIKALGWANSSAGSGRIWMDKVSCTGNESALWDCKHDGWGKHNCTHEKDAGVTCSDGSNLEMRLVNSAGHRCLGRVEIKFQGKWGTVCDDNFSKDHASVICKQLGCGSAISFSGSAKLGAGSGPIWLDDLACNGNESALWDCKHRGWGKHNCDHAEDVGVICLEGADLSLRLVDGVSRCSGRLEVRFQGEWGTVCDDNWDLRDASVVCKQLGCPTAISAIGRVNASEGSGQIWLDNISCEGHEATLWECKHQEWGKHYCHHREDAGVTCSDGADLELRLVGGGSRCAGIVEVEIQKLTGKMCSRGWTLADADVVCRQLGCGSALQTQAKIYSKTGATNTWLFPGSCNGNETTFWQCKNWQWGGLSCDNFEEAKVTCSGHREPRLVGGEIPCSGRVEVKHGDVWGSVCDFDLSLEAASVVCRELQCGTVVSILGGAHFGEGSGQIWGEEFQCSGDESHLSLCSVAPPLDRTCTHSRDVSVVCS
# Legend:
# CD163 = CD163 (Homo sapiens, UniProt Q86VB7); experiment: Competition of binding to Mac2-158 epitope (SPR on Mac2-158 saturated CD163 chip); settings: 2 mM free calcium buffer, mAb 5 μg/ml
# Chain of CD163 (Q86VB7 42-1156): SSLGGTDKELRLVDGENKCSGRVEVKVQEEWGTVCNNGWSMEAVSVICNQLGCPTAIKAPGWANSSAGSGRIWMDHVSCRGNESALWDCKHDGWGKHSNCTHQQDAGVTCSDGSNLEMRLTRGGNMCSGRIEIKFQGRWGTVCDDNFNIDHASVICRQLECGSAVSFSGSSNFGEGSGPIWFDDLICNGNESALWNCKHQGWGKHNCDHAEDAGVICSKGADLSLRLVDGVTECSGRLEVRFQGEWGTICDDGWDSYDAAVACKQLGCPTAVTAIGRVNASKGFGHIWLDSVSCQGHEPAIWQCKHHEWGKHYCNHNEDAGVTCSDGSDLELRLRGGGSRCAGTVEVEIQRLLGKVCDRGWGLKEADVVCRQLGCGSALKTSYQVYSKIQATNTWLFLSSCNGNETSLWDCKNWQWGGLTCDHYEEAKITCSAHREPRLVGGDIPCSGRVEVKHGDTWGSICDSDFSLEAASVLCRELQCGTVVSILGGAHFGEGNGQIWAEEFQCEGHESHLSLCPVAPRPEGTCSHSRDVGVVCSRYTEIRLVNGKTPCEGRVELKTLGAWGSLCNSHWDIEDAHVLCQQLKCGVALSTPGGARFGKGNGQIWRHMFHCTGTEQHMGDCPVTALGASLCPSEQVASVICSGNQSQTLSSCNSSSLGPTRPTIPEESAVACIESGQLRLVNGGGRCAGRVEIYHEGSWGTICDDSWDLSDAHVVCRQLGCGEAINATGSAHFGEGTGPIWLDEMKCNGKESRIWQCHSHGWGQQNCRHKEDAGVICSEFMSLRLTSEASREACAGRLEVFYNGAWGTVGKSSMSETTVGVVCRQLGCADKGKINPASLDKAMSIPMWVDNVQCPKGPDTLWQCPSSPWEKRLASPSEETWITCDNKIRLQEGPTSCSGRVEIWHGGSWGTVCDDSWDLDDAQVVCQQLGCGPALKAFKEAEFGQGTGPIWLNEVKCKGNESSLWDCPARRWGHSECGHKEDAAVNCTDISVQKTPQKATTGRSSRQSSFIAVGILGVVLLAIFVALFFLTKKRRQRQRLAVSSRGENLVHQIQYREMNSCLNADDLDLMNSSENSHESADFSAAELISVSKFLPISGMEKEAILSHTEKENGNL
# Procedure: To evaluate if there is competition in the binding of a range of mAbs to CD163 we first saturated the CD163-chip with Mac2-158 by injecting 50 μL of 50 μg/ml Mac2-158 and subsequently injecting relevant mAbs in 5 μg/ml. The binding buffer was CaHBS 10 mM Hepes, 150 mM NaCl, 3.0 mM CaCl2, 1.0 mM EGTA, and 0.005% Tween 20, pH 7.4.
# [1] = target: T1, mouse CD163 1-5 LKIHDK-->VKVQEE, Y60R mutant; experiment: Western blotting of mouse CD163 and knock in mutant; format: binding
# Procedure: CD163 domain 1-5 was used for expression of mouse CD163 domain 1-5/V5/His. A mutant (LKIHDK-->VKVQEE, Y60R) in domain 1 of mouse CD163 1-5 was ordered as midiprep at GenScript (Piscataway, N.J., USA). Sequences DNA and protein of mutants are show below (mutant only domain 1).
# The mouse CD163 1-5 and the mouse CD163 domain 1 mutant were expressed transient in Lenti-X 293T cells as follows: 1.5 μg of the DNA was diluted in OptiCHOPro SFM (8 mM L-glutamine) to a total volume of 50 μl The DNA was gently mixed with 50 μl of OptiCHOPro SFM containing 1.5 μl Freestyle MAX transfection reagent (Invitrogen, Taastrup, Denmark). After 10 min of incubation at room temperature the complexes were added to 1×10^6 cells in 1 ml. Three days later, the cell supernatants were harvested by centrifugation.
# Tris pH 8 buffer, and cell culture supernatants were added 60 μl of Ni-NTA His-bind resin slurry. After 1 hour shaking at 4° C. the supernatants were aspired and each of the purifications were eluted with 90 μl 50 mM Tris pH 8, 25 mM EDTA buffer.
# 90 μl of each of the eluates were added 30 μl of 4×LDS sample buffer. 20 μl samples of each supernatant and 8 μl SeeBlue plus2 prestained marker were loaded on NuPage 4-12% Bis-Tris-Gels (Invitrogen, Taastrup, Denmark) and the SDS-PAGEs were run with MOPS running buffer according to instructions of the manufacturer (200 V constant for 50 min). […]
# [2] = tested on: TNF production of pro-inflammatory macrophages; experiment: Inhibition of LPS induction of TNF production in in vitro matured pro-inflammatory macrophages; format: cell-based, human; settings: compared with free dexamethasone / buffer, FIG. 30-31
# Procedure: Monocytes were obtained from MNC after isolation using Dynal Monocyte Negative
# Monocytes were resuspended in RMPI 1640 medium (Sigma-Aldrich, Brøndby, Denmark) containing 20% fetal calf serum (FCS) supplemented with 100 ng/ml M-CSF (GenScript Corporation, New Jersey, USA) and penicillin/streptomycin (pen/strep) for 7 days. The first 3 days in Tissue Culture Flasks at 37° C. and 5% CO2. The monocytes were then detached from the flask by flushing and scraping. The monocytes were divided into smaller portions and further grown for four days. 0.9×10^5 cells per well were grown in 96 well tissue culture plates for TNF CBA use.
# Subsequently, the macrophages were activated in RMPI 1640 containing 5% FCS, 1 ug/ml lipopolysaccaride (LPS) (Sigma-Aldrich, Brøndby, Denmark) and 20 ng/ml INF-gamma (Genscript Corporation, New Jersey, USA) for 18 hours making them pro-inflammatory.
# The pro-inflammatory macrophages were stimulated with RMPI160, 5% FCS, 1 ug/ml LPS and 20 ng/ml INF-gamma containing either dexamethasone, Ab-dexamethasone or no drug.
# To detect the change in soluble TNF-alpha concentration we used the Cytometry Bead Array Kit (BD Biosciences, New Jersey, USA). The media from the in vitro stimulated macrophages (described earlier) grown in 96 well tissue culture plates were analyzed according to the manufacturer's protocol.
molecule,measurement,setting,value
"MAC2-158: anti-human CD163 murine mAb, binds SRCR domain 1, IQ Products; VH SEQ ID NO: 1, VL SEQ ID NO: 2 (antibody, V domains shown, Mac2-158 VH; Mac2-158 VL) VH: DVQLQESGPGLVKPSQSLSLTCTVTGYSITSDYAWNWIRQFPGNKLEWMGYITYSGITNYNPSLKSQISITRDTSKNQFFLQLNSVTTEDTATYYCVSGTYYFDYWGQGTTLTVSS VL: SVVMTQTPKSLLISIGDRVTITCKASQSVSSDVAWFQQKPGQSPKPLIYYASNRYTGVPDRFTGSGYGTDFTFTISSVQAEDLAVYFCGQDYTSPRTFGGGTKLEIKRA",binding to CD163-Fc saturated with Mac2-158,CD163,not able to bind
same,binding in western blot,[1],did bind
same,effect on TNF production of macrophages,[2],no effect different from buffer
